Data taken from PMC6536566.

Biological target: VC-OsSLAC1 (rice (Oryza sativa))
Assay: split reporter (BiFC, NanoBiT); BiFC with Venus halves (VN, VC) co-expressed in rice protoplasts; confocal microscopy; ER-mCherry as internal control, Venus signal/mCherry signal

BiFC fluorescence (Venus signal/mCherry signal) relative to VN-Hd3A with VC-SLAC1: 3 fold
B1: VN-SAPK10 (natural protein)
chain: MDRAALTVGPGMDMPIMHDGDRYELVRDIGSGNFGVARLMRSRADGQLVAVKYIERGDKIDENVQREIINHRSLRHPNIIRFKEVILTPTHLAIVMEYASGGELFERICNAGRFSEDEARFFFQQLISGVSYCHSMQVCHRDLKLENTLLDGSTAPRLKICDFGYSKSSVLHSQPKSTVGTPAYIAPEVLLKKEYDGKIADVWSCGVTLYVMLVGAYPFEDPDEPKNFRKTIQRILGVQYSIPDYVHISPECRDLIARIFVANPATRISIPEIRNHPWFLKNLPADLMDDSKMSSQYEEPEQPMQSMDEIMQILAEATIPAAGSGGINQFLNDGLDLDDDMEDLDSDPDLDVESSGEIVYAM
